Data published in US20180186873A1.

Assays:
[1] = molecular target: recombinant human IL-5 (human) (UniProt P05113); experiment: cell-based or functional assay
[2] = molecular target: cynomolgus monkey IL-5 (cynomolgus monkey); experiment: cell-based or functional assay

Mepolizumab (antibody)
IC50, inhibition of IL-5 driven proliferation of TF-1.6G4 cells (Mean, pM) [1]: 534 pM | IC50, inhibition of IL-5 driven proliferation of TF-1.6G4 cells (Mean, pM) [2]: 584 pM
